According to US20090136936A1:

Target: PA-FITC (PA antigen of Bacillus anthracis) (Bacillus anthracis) (UniProt P13423)
Sequence (P13423 30-764 limits assumed): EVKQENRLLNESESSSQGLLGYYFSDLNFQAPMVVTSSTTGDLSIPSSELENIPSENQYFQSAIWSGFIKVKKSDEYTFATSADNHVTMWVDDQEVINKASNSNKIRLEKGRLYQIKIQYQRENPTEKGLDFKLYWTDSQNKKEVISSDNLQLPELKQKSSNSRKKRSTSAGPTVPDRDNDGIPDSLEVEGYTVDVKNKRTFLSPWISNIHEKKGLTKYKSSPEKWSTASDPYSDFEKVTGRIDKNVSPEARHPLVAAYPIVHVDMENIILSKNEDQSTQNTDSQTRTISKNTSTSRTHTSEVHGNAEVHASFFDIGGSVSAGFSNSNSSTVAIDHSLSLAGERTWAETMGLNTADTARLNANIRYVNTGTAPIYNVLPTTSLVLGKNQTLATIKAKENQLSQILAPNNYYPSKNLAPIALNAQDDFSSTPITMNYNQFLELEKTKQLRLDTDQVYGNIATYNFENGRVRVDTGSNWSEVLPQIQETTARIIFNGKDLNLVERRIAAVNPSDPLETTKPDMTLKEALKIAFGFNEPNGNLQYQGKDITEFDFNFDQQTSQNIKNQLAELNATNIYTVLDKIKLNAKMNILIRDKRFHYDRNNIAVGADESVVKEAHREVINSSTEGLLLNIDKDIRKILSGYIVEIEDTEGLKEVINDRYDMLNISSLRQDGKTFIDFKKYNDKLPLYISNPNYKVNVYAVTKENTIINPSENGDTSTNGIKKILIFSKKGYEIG

| Substance | Mn (mean fluorescence intensity) |
| --- | --- |
| 26-10 scFv (anti-digoxin) | 8.49 |
| M18 scFv (PelB fused, anti-PA) | 10.3 |
| PelB-2610scFv-Im2-FLAG | 9.12 |
| PelB-M18scFv-Im2-FLAG | 249 |
